According to the nanobody polyreactivity screen of Harvey et al. (2022):

Assay: yeast display, Sf9 membrane polyspecificity reagent, FACS + sequencing; frameworks hold sequencing errors
Summary of the method: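 After 36–48 hours of galactose induction, yeast (Saccharomyces cerevisiae BJ5465) displaying a synthetic nanobody library were stained at 4 °C for 1 hour with 10% biotinylated, detergent-solubilized Sf9 membrane reagent. Streptavidin microbeads enriched the stained cells before FACS sorting into low and high (top ~1%) gates on anti-HA and streptavidin fluorescence. Each clone's polyreactivity label reflects its gate of origin.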

Q: With “QVQLVESGGGLVQAGGSLRLSCAASGSTFQYYAMGWYRQAPGKERELVAAISSGGSTYYADSVKGRFTISRDIAKNTVYLQMNSLKPEDTAVYYCAAYEYDGDYGYCGQGTQVTVSS” as the sequence, how does the “polyreactivity (PSR sort gate)” value read?
A: high polyreactivity

Q: Which “polyreactivity (PSR sort gate)” value does the source give for “QVQLVESGGGLVQAGGSLRLSCAASGSTLGRYAMGWYRQAPGKERELVAAISRGGGSTYYADSVKGRFTISRDNAKNTVYLQMNSLKPEYTAVYYCAVGIVHRDSRYYYWGQGTQVTVSS” here?
A: high polyreactivity

Q: For “QVQLVESGGGLVQAGGSLPLRCPASGSIFYQYAMGWYRQAPGKVRELVARIRGSTGTTYYADSVKGRFTISRDNAKNTVYLHMNSLKPEDTAVYYCNAARYQGRSRFDYWGQGSQVTVSS”, which “polyreactivity (PSR sort gate)” value is on record?
A: high polyreactivity

Q: Which “polyreactivity (PSR sort gate)” value does the source give for “QVQLVESGGGLVQAGGSLRLSCAASGIIFWYYAMGWYRQAPGKERELVAAISRGGTTYYADSVKGRFTISRDNAKNTVYLQMNSLKPEDTAVYYCAAGVRYRLTRYFYPDFDYWGQGTQVTVSS” here?
A: high polyreactivity

Q: Which “polyreactivity (PSR sort gate)” value does the source give for “QVQLVESGGGLVQAGGSLRLSCAASGSIFKGYAMGWYRQAPGKERELVAAITGGGGSTYYADSVKGRFTISRDNAKNTVYLQMNSLKPEDTAVYYCAADARVKRYYFRKSGYWGQGTQVTVSS” here?
A: high polyreactivity

Q: Which “polyreactivity (PSR sort gate)” value does the source give for “QVQLVESGGGLVQAGGTLGLSCAASGFIITQYAMGRYRQAPGKERELVAAISGNGGRTYYADSVKGRFTISRDNAKNTVYLQLNSLKPEDTAVYYCAVTRPGRRYPFGYDYWGQGTQVTVSS” here?
A: high polyreactivity

Q: With “QVQLVESGGGLVQAGGSLRLSCAASGRIFVKYVMGWYRQAPGKERELVAAISSRGGSTYYADSVKGRFTSSRDNAKNTVYLQMNSLKPEDTAVYYCNKAFTARDDYWGQGTQVTVSS” as the sequence, how does the “polyreactivity (PSR sort gate)” value read?
A: high polyreactivity

Q: For “QVQLVESGGGLVQAGGSLRLSCAASGSIFKRYAMGWYRQAPGKERELVAGITSSGGSTYYADSVKGRFTISPDNAKNTVYLQMNSLKPEDTAVYYCAAPYSSYKVRPYDYWGQGTQVTVSS”, which “polyreactivity (PSR sort gate)” value is on record?
A: low polyreactivity

Q: With “QVQLLESGGGIVQAGGSLRLSCAASGSIFWGYAMGWYRQAPGKERELVAAISSSGGNTYYADSVKGRFTISRDNAKNTVYLQMNSLQPEETAVYYCAATPEFYGGKITDVSSQYGYWGQGPQVTVSS” as the sequence, how does the “polyreactivity (PSR sort gate)” value read?
A: low polyreactivity

Q: Which “polyreactivity (PSR sort gate)” value does the source give for “QVQLVESGGGLVQAGGSLRLSCAASGITFISYAMGWYRQAPGKEMELVAAISSSGGRTYYADSVKGRFTISRDNAKNTVYLQMNSLKPEDTAVYYCAADGYPEYPRYGYWGQGTQVTVSS” here?
A: high polyreactivity

Q: For “QVQLVESGGGLVQAGGSLRLSCAATGSTFHWYAMGWYRQAPGKATELVATITWSGGSTYYADSVKGRFTISRDNAKNTVYLQMNSLKPEDTAVYYCAAETYILLEYDYWGQGTQVTVSS”, which “polyreactivity (PSR sort gate)” value is on record?
A: high polyreactivity

Q: For “QVQLVESGGGLLQAGGSLRISCAASGRIFGRYAMGWYRQAPGKERELVASISRGGSTNYADSVKGRFTISRDNAKNTVYLQMNSLKPEDTAVYYCAADLNAYPQRAYDYWGQGTQVTVSS”, which “polyreactivity (PSR sort gate)” value is on record?
A: low polyreactivity

Q: For “QVQLVESGGGLVQAGGSLRLSCAASGRIFYYAMGWYRQAPGKERELVASITWSGGSTYYADSVKGRFTISRDNAKNTVYLQMNSLKPEDTAVYYCNADDLYTWYVVYNYWGQGTQVTVSS”, which “polyreactivity (PSR sort gate)” value is on record?
A: low polyreactivity

Q: Which “polyreactivity (PSR sort gate)” value does the source give for “QVQLVESGGGLVQAGGSLRLSCAASGSTFTGNAMGWYRQAPGKERELVASINGSSGSTYYADSVKGRFTISRDNAKNTVYLQMNSLKPEDTAVYYGAKDSFLHFPRVGWVGLEYWGQGTQVTVSS” here?
A: low polyreactivity

Q: Which “polyreactivity (PSR sort gate)” value does the source give for “QVQLVESGGGLVQAGGSHRLSCAATGNTFHTNAIGWYRQAPGKERELVAAITGGGSTYYADSVKGRFTISRDNAKNTVYLQMNSLKPEDTAVYYCNTDVPYGLDVSDTIDYYYWGQGTQVTVSS” here?
A: low polyreactivity

Q: With “QVQLVESGGGLVQAGGSLRLTCAASGSTLWYYAMGWYRQAPGKERELVADITSSGNTNYADSVKGRFTISRDNAKNTVYLQMNSLKPEDTAVYYCAADSANYQWYLSWQKDDYWGQGTQVTVSS” as the sequence, how does the “polyreactivity (PSR sort gate)” value read?
A: low polyreactivity

Q: With “QVQLVESGGGLVQAGGSLRLSCAASGRIFRVYAMGWYRQAPGKERELVAAISWSGGRTYYADSVKGRFTISRDNAKNTVYLQMNSLKPEDTAVYYCAAVRYERGLWSDYWGQGTQVTVSS” as the sequence, how does the “polyreactivity (PSR sort gate)” value read?
A: high polyreactivity

Q: For “QVQLVESGGGLVQAGGSLRLSCAASGRTFGYNGMGWYRQAPGKERELVAAINSGGNTNYADSVKGRFTISRDNAKNTVYLQMNSLKPEDTSVYYCAKYGTLYEPVPNEYDYWGQGTQVTVSS”, which “polyreactivity (PSR sort gate)” value is on record?
A: low polyreactivity

Q: With “QVQLVESGGGLVQAGGSLRLSCAASGSIFVDYTMGWYRQAPGKERELVAAITYRGTRTYYADSVKGRFTISRDNAKNTVYLQMNSLKPEDTAVYYCNKLYRRYPVPREYDYWGQGTQVSVSS” as the sequence, how does the “polyreactivity (PSR sort gate)” value read?
A: high polyreactivity

Q: With “QVQLVESGGGLVQAGGSLRLSCAASGSTFNVNAMGWYRQAPGKETEFVAAITYRGGRTYYADSVKGRFTISRDNEKNTVYLQMNSLKPEDTAVYYCAADGYRKRGFDYWGQGTQVTVSS” as the sequence, how does the “polyreactivity (PSR sort gate)” value read?
A: high polyreactivity

Q: For “QVQLVESGGGLVQAGGSLRLSCAASGIIFDSNAMGWYRQAPGKERELVAAITRTATRTYYADSVKGRFTISRDQAQNTVYLQMNSLKPEDTAFYYCADRGSTPQPGVGYWGQGTQVTVSS”, which “polyreactivity (PSR sort gate)” value is on record?
A: high polyreactivity

Q: For “QVQLVESGGGLVQAGGSLRLSCAASGSTFSYYAMGWYRQAPGKERELVAAITRGGSTYYADSVKGRFTISRDNAKNTVYLQMNSLKPEDTAVYYCATRTWRWGYLHYDYWGQGTQVTVSS”, which “polyreactivity (PSR sort gate)” value is on record?
A: low polyreactivity

Q: With “QVQLVDSGGGLVQAGGSLRLSCAASGFIFHRYAMGWYRQAPGKERELVAAISSSGGSTYYADSVKGRFTISRDNAKNTVYLQMNSLKPEDTAVYYCAAYYHDGYEFNYWGQGTQLTVSS” as the sequence, how does the “polyreactivity (PSR sort gate)” value read?
A: high polyreactivity

Q: Which “polyreactivity (PSR sort gate)” value does the source give for “QVQLVESGGGLVQAGGSLRLSCAASGRTFAKYAMGWYRQAPGKERELVAAINSSGGSTYYADSVKGRFTISRDNAKNTVYLQMNSLKPEDTAVYYCAALGIGSYRRYSGYDYWGQGTQVTVSS” here?
A: low polyreactivity

Q: With “QVQLVESGGGLVQAGGSLRLSCAASGIIFYPNAMGWYRQAPGKERELVAAITSDGSTYYADSVKGRFTISRDNAKNTVYLQMNSLKPEDTAVYYCAAWDDYGYDYWGQGTQVTVSS” as the sequence, how does the “polyreactivity (PSR sort gate)” value read?
A: low polyreactivity

Q: Which “polyreactivity (PSR sort gate)” value does the source give for “QVQLQESGGGLVQAGGSLRLSCAASGTISYAPHMGWYRQAPGTDSELVAGITIGGTTYYADSVKGRFTISRDNAKNTVYLQMNSLSPGDTAVYYCAAHSEQYTPFYYWGQGTQVTVSS” here?
A: low polyreactivity

Q: Which “polyreactivity (PSR sort gate)” value does the source give for “QVQLVESGGGLVQAGGSHRLSCAASGFTFYRYAMGSYRQAPGKERELVAAITGGGSTYYADSVKGRFTISRDNAKNTVYLQMNSLKPVDTAVYYCNAYHIVIYDYWGQGTQVTVSS” here?
A: low polyreactivity

Q: For “QVQLVESGGGLVQAGGSLRLSCAASGIIFDYYAMGWYRQAPGKERELVATITGNSTNTYYADSVKGRFTISRDNAKNTVYLQMNSLKPEDTAVYYCATAQTRWWPSIAGYDYWGQGTQVTVSS”, which “polyreactivity (PSR sort gate)” value is on record?
A: high polyreactivity

Q: Which “polyreactivity (PSR sort gate)” value does the source give for “QVQLVESGGGLVQAGGILRLSCAASGRTFAYNTMGWYRQAPGKERQLVAAISSDGSTNYADSVKGRFTISRDNAKNTVYLQMNSLKPEDTAVYYCAKGEGTGTSDTQVYEHDYWGQGTQVTVSS” here?
A: low polyreactivity

Q: With “QVQLVESGGGLVQAGGSLRLSCAASGFIFGSYAMGWYRQAPGKERELVAAITSDGNTDYADSVKGRFTISRDNAKNTVYLQMNSLKPEDTAVYYCATDWVDHYDYWGQGTQVTVSS” as the sequence, how does the “polyreactivity (PSR sort gate)” value read?
A: low polyreactivity

Q: For “QVQLVESGGGLVQAGGSLRLSCAASGRIFRVNAMGWYRQAPGKERELVAAINFSGTSTYYADSVKGRFTISRDNAKNTVYLQMNSLKPEDTAVYYCNTASYVSWYVHYYYWGQGTQVTVSS”, which “polyreactivity (PSR sort gate)” value is on record?
A: low polyreactivity

Q: Which “polyreactivity (PSR sort gate)” value does the source give for “QVQLVESGGGLVQAGGSLRLSCAASGRTFRYNAMGWYRQAPGKERELVASIRRGGSTNYADSVKGRFTISRDNAKNTVYLQMNRLKPEDTAVYYCAAGGYYWGQGTQVTVSS” here?
A: high polyreactivity

Q: For “QVQLVDSGGGLVQAGGSLRLSCAASGSNYVDYDMGWYRQAPGKERDLVAALTYSGARTYYADSVKGRFTISRDNAENTVYLQMNSLKPEDTAVYYCNAAGYPYPYRGDYDYWGQGTQVTVSS”, which “polyreactivity (PSR sort gate)” value is on record?
A: low polyreactivity

Q: Which “polyreactivity (PSR sort gate)” value does the source give for “QVQHVESGGGLVQAGGSLRLSCAASGLTFKANAMGWYRQAPGKERELVAAITWSGTSTYYADSVKGRFTISRDNAKNTVYLQMNRLKPEDTAVYYCNKPYDVWYHDYDYWGQGTQVTVSS” here?
A: low polyreactivity

Q: With “QVQLVESGGGLVQAGGSLRLSCAASGFIIDRYAMGWYRQAPGKERELVARISWSGGSTYYADSVKGRFTISRDNAKNTVYLQMNSLKPEDTAVYYCNKAAWWLQSRYDYWGQGTQVTVSS” as the sequence, how does the “polyreactivity (PSR sort gate)” value read?
A: high polyreactivity

Q: With “QVQLVESGGGLVQAGASLRLSCAASGSTFPVYAMGWYRQAPGKERELVAAITGSGARTYYADSVKVRFTISRDNAKNTVYLQMNSLKPEDTAVYYCAKRTVIAVYGYPYRYGMNYWGQGTKVTVSS” as the sequence, how does the “polyreactivity (PSR sort gate)” value read?
A: high polyreactivity

Q: For “QVQLVESGGGLVQAGGSLRLSCAASGSIFYDYAMGWYRQAPGKERELVAALTNDDSSTYYADSVKGRFTISRDNAKNTVYLQMNSLKPEDTAVYYCRFKYAVAHQFWVYRYDYWGQGTQVTVSS”, which “polyreactivity (PSR sort gate)” value is on record?
A: low polyreactivity

Q: For “QDQLVESAGGLVQAGGSLRLSCAASGSTFVRNAMGWYRQEPGKERELVAAISVDGSSTYYADSVKGRFTISRDIAKNTVYLQMNSLKPEVTAVYYCNADWDYRDFYAITYDFWGQGTQVTVSS”, which “polyreactivity (PSR sort gate)” value is on record?
A: low polyreactivity

Q: For “QVQLVESGAGLVQAGGSLRLSCAASRRIIYKYAMGWYSQAPGKERELVAAITSGGSTYYADSVKGRYTISRDNAKNTVDLQMNSLKPQDTAVYYCAASYARLSVWYDYWRQGTQVTVSS”, which “polyreactivity (PSR sort gate)” value is on record?
A: high polyreactivity

Q: For “QVQLVESGGGLVQAGGSLRLSCAASGSTFDYYAMGWYRQAPGKERELVAAISSSGSRTHYADSVKGRFTISRDNAKNTVYLQMNSLKPEDTAVYYCATYTKYWRYPYDYWGQGTQVTVSS”, which “polyreactivity (PSR sort gate)” value is on record?
A: high polyreactivity

Q: Which “polyreactivity (PSR sort gate)” value does the source give for “QVQLVESGRGLVLAGGSLRLSCAASGFIFSYNAMGSYRLAPGKERELVAAISSSGGTTYYADSVKGRFTISRDNAKNTVYLQMNSLKPEDTAVYYCAADGRTYHHHDCGWYRYDYWGQGSQVTVSS” here?
A: low polyreactivity

Q: For “QVQLVESGGGLVQAGGSLRLSCAASGITFAYYAMGWYRQAPGKERELVAVITSGGRTNYADSVKGRFTISRDNAKNTVYLQMNSLKPEDTAVYYCAAYRSSKTLRLGYYYWGQGTQVTVSS”, which “polyreactivity (PSR sort gate)” value is on record?
A: high polyreactivity

Q: With “QVQLVESGGGLVQAGGSLRLSCAASGSIFGYYAMGWYRQAPGKERELVAAISRGGRTNYADSVKGRFTISRDNAKNTVYLQMNSLKPEDTAVYYCAAESYRAYKYDYWGQGTQVTVSS” as the sequence, how does the “polyreactivity (PSR sort gate)” value read?
A: low polyreactivity
